Assay results as given in paper PMC5039005.

Legend:
[1] = target: Str-Ct.Samp1(1–180) (Chaetomium thermophilum); assay: pull-down
[2] = target: Samp1-YFP (human) (UniProt Q5SNT2); assay: cross-linking + co-IP

Substance	fold binding, RanGTP against RanGDP [1]	percent of RanGTP pulled down at a 1:1 molar ratio [1]	percent of total RanGTP bound in live cells [2]
His6-Ran (from UniProt P62826 1-216) (natural protein)	1.8 fold	40%	–
Ran (endogenous in tsBN2 and BHK-21 cells) (from UniProt A0A8C2MF66 1-216) (natural protein)	–	–	1%
